Patent US20050176632A1 (published 2005)

B1: human type ZAQ ligand mature peptide (type G, 86 amino acid residues) (ligand)
chain: AVITGACERDVQCGAGTCCAISLWLRGLRMCTPLGREGEECHPGSHKVPFFRKRKHHTCPCLPNLLCSRFPDGRYRCSMDLKNINF
B2: snake venom MIT1 (ligand)
chain: AVITGACERDLQCGKGTCCAVSLWIKSVRVCTPVGTSGEDCHPASHKIPFSGQRMHHTCPCAPNLACVQTSPKKFKCLSK

Legend:
[1] = biological target: human type ZAQ (G protein-conjugated receptor protein ZAQ) expressed on CHO cells (ZAQC-B1 cells) (human, UniProt Q8TCW9 1-393); assay: cell-based or functional assay
Sequence of human type ZAQ (G protein-conjugated receptor protein ZAQ) expressed on CHO cells (ZAQC-B1 cells) (Q8TCW9 whole entry): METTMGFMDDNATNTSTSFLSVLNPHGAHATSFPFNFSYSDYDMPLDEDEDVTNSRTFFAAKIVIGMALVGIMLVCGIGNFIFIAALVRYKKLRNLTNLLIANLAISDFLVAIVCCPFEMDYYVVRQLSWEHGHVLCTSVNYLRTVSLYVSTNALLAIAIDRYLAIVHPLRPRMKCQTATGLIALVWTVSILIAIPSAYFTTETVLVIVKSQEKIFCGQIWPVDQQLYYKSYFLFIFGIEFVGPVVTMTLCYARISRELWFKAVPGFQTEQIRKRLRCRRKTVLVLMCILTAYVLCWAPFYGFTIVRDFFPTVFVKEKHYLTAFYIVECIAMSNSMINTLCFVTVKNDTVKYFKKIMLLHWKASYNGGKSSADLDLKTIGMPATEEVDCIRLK

[2] = biological target: human type I5E receptor expressed on CHO cells (I5E-4 cells) (human, UniProt Q8NFJ6 1-384); assay: cell-based or functional assay
Sequence of human type I5E receptor expressed on CHO cells (I5E-4 cells) (Q8NFJ6 whole entry): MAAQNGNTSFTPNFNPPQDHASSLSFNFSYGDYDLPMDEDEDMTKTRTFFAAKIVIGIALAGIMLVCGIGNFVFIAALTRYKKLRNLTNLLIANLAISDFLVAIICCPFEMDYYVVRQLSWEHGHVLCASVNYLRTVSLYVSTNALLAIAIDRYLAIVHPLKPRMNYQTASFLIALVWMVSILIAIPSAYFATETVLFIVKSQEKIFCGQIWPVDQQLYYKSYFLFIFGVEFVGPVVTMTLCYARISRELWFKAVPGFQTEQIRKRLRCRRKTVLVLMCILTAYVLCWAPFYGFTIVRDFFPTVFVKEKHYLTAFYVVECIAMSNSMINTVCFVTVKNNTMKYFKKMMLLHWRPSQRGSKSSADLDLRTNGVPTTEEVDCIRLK

| Binder | EC50 of the increase of intracellular calcium concentration in ZAQ expression CHO cells (ZAQC-B1 cells), FLIPR [1] [pM] | action to activate a ZAQ receptor, relative to the human type ZAQ ligand peptide (FLIPR) [1] | action to activate a human type I5E receptor, relative to the human type ZAQ ligand peptide (FLIPR) [2] | action to activate an I5E receptor, relative to the human type Bv8 peptide (FLIPR) [2] |
| --- | --- | --- | --- | --- |
| B1 | 96 |  |  |  |
| B2 |  | 10 times greater than the human type ZAQ ligand peptide | ~100 times greater than the human type ZAQ ligand peptide | 10 times greater than the human type Bv8 peptide |
